In patent US20140086916A1 (Merck Sharp & Dohme, published 2014):
Values joined by “and” are separate entries in the source; they are usually repeats but may differ in a detail not shown here. Identical values can stand only once.

How the values were obtained:
[1] = molecular target: T1, wild-type human PCSK9 (human, UniProt Q8NBP7 31-692, limits assumed); assay: SPR (Biacore T100), antibody captured by anti-human Fc, PCSK9 as analyte, 1:1 model
T1 construct: also called PCSK9 antigen
Procedure: The CM5 chip was immobilized on all flowcells with mouse anti-human IgG (Fc specific) according to the Biacore Human Antibody Capture Kit (Cat# BR-1008-39) to ˜7000RU. Anti-PCSK9 antibodies were captured on the chip to ˜500RU followed by analyte injections of wild-type human PCSK9 from 64.1 nM to 2.0 nM. Each flowcell was regenerated between each analyte injection with 3M MgCl for 40 seconds at 10 uL/min. Data was analyzed with Biacore T100 Evaluation Software using the 1:1 binding model using at least 5 point concentration range sensogram.

[2] = molecular target: T2, FcγRI (R&D Systems) (UniProt P12314 16-288); assay: ELISA-type plate assay, FcγRI coated, monomeric antibody, detected with AP-conjugated goat anti-human IgG F(ab')2, RFU readout
T2 construct: Bought reagent, coated on the plate at 1 µg/mL; also called Fc gamma receptor I; CD64
T2 sequence (P12314 16-288 limits assumed): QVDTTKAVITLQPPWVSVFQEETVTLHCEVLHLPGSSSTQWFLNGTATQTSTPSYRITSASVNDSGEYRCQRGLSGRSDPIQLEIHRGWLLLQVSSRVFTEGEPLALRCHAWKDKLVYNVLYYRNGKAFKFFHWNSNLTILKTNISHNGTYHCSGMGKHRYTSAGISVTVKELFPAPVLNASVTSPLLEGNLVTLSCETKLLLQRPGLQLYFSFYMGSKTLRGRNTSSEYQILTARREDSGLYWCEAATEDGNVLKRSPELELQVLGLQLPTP
Procedure: (§1) Fcγ receptor binding assays were carried out as described (Shields, et al. (2001) J. Biol. Chem. 276:6591-6604) with minor modifications. High protein binding 96-well plates (Corning Costar) were coated with 100 μL per well of Fcγ receptor solutions in PBS at the following concentrations: 1 μg/mL for both FcγRI (R&D Systems) and FcγRIIa (Pichia pastoris produced), 2 μg/mL for FcγRIIb (P. pastoris produced), 0.8 μg/mL for FcγRIIIa-F158, and 0.4 μg/mL for FcγRIIIa-V158 (both P. pastoris produced). All Pichia pastoris produced receptors were expressed and purified as described (Li, et al. (2006) Nature Biotechnology 24:210-215). Monomeric antibody samples added to the FcγRI plate were serially diluted in assay diluent (1×PBS, 1% BSA, and 0.05% Tween20) and 100 μL, per well was added to the plate. Antibody samples prepared for the remaining receptors require a one hour dimerization step with half molar ratio of goat anti-human IgG F(ab′)2 F(ab′)2 that is conjugated with alkaline phosphatase for detection. […] FcγRI bound sample antibody was detected using the same goat anti-human IgG F(ab′)2 alkaline phosphatase conjugated F(ab′)2. Sample antibody binding was quantified by measuring excitation at 340 nm and emission at 465 nm after 18 hour incubation with SuperPhos, 4-MUP Fluorescence AP Substrate Detection System (Virolabs).

[3] = molecular target: T3, FcγRIIIa-V158 (Pichia pastoris produced) (UniProt P08637 17-208, limits assumed); assay: ELISA on plate-coated receptor; antibody dimerized with anti-human IgG F(ab')2-AP; ELISA IC50, YGLY23258 (dimer), Table 5 experiment
T3 construct: also called FcγRIIIA LV; FcgRIIIA LV
T3 sequence (P08637 17-208 F176V limits assumed): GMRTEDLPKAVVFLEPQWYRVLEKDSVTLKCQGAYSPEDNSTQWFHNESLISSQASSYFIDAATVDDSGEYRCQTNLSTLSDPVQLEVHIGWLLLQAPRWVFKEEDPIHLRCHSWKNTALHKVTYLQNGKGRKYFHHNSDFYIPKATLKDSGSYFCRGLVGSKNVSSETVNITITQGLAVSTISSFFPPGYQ
Procedure: as §1

[4] = molecular target: T2, FcγRI (R&D Systems); assay: summary of the FcγR ELISAs
Procedure: (§2) Fcγ receptor binding assays were carried out as described (Shields, et al. (2001) J. Biol. Chem. 276:6591-6604) with minor modifications. High protein binding 96-well plates (Corning Costar) were coated with 100 μL per well of Fcγ receptor solutions in PBS at the following concentrations: 1 μg/mL for both FcγRI (R&D Systems) and FcγRIIa (Pichia pastoris produced), 2 μg/mL for FcγRIIb (P. pastoris produced), 0.8 μg/mL for FcγRIIIa-F158, and 0.4 μg/mL for FcγRIIIa-V158 (both P. pastoris produced). All Pichia pastoris produced receptors were expressed and purified as described (Li, et al. (2006) Nature Biotechnology 24:210-215). Monomeric antibody samples added to the FcγRI plate were serially diluted in assay diluent (1×PBS, 1% BSA, and 0.05% Tween20) and 100 μL, per well was added to the plate. Antibody samples prepared for the remaining receptors require a one hour dimerization step with half molar ratio of goat anti-human IgG F(ab′)2 F(ab′)2 that is conjugated with alkaline phosphatase for detection. These dimerized F(ab′)2/antibody complexes were also serially diluted and 100 μL per well were added to the remaining receptor plates and all plates were incubated for one hour at room temperature. FcγRI bound sample antibody was detected using the same goat anti-human IgG F(ab′)2 alkaline phosphatase conjugated F(ab′)2. Sample antibody binding was quantified by measuring excitation at 340 nm and emission at 465 nm after 18 hour incubation with SuperPhos, 4-MUP Fluorescence AP Substrate Detection System (Virolabs).

[5] = molecular target: T4, FcγRIIIa-F158 (Pichia pastoris produced) (UniProt P08637 17-208, limits assumed); assay: summary of the FcγR ELISAs
T4 construct: also called FcγRIIIA LF; FcgRIIIA LF
T4 sequence (P08637 17-208 limits assumed): as the sequence (P08637 17-208 F176V limits assumed) above, with V160F counted along it
Procedure: as §2

[6] = molecular target: T3, FcγRIIIa-V158 (Pichia pastoris produced); assay: summary of the FcγR ELISAs
Procedure: as §2

Binder | Kd [1] | koff [1] | kon [1] | EC50 (read off the curve) [2] [µg/mL] | IC50 [3] [µg/mL] | decreased affinity fold vs wildtype parent antibody produced in GS 5.0 [4] [fold] | decreased affinity fold vs wildtype parent antibody produced in GS 5.0 [5] [fold] | decreased affinity fold vs wildtype parent antibody produced in GS 5.0 [6] [fold]
1F11 wildtype (parent) humanized anti-PCSK9 monoclonal IgG1 antibody (antibody, Produced in glycoengineered Pichia pastoris GFI5.0 (strain YGLY21351); also called 1F11 IgG1 GS5.0; YGLY21351) heavy: not shown light: DIQMTQSPSSLSASVGDRVTITCKASQNVGTNVVWYQQKPGKAPKALIHSASYRYSGVPSRFSGSGSGTDFTLTISSLQPEDFATYYCQQYKTYPYTFGQGTKVEIKRTVAAPSVFIFPPSDEQLKSGTASVVCLLNNFYPREAKVQWKVDNALQSGNSQESVTEQDSKDSTYSLSSTLTLSKADYEKHKVYACEVTHQGLSSPVTKSFNRGEC | 3.29 nM and 2.3 nM | 0.000499 s⁻¹ and 0.000407 s⁻¹ | 152000 M⁻¹ s⁻¹ and 177000 M⁻¹ s⁻¹ | ~0.08 |  |  |  | 
1F11 IgG1 F243A/V264A double mutein anti-PCSK9 antibody (antibody, sialylated N-glycans; also called 1F11 DM; YGLY23258) heavy: not shown light: DIQMTQSPSSLSASVGDRVTITCKASQNVGTNVVWYQQKPGKAPKALIHSASYRYSGVPSRFSGSGSGTDFTLTISSLQPEDFATYYCQQYKTYPYTFGQGTKVEIKRTVAAPSVFIFPPSDEQLKSGTASVVCLLNNFYPREAKVQWKVDNALQSGNSQESVTEQDSKDSTYSLSSTLTLSKADYEKHKVYACEVTHQGLSSPVTKSFNRGEC |  |  |  |  | 0.13 | 4 | 8 to 60 | 2 to 6
